This is an account of results in US9289506B2, “Surface binding of nanoparticle based drug delivery to tissue” (Massachusetts Institute of Technology, priority 2013, dated 2016).

For data set [1] the following is noted: dilute solution of DI water at pH 5; cited from earlier work.
Data set [2] is described as follows: Non-equilibrium diffusive transport across cartilage disks (transport cell). The class given is in vitro ADME, bovine. Conditions: 400 μm thick disks, 20° C. How it is done: Real-time measurement of diffusive transport of Avidin and NeutrAvidin through young bovine cartilage disks (with intact superficial zone) was measured using a diffusion chamber consisting of two compartments as described previously (Garcia et al., Arch Biochem Biophys, 2003). Groups of three cartilage disks (6 mm diameter, 400 μm thick) were clamped by O-rings between the two compartments of the diffusion chamber (with total exposed tissue area for transport of 0.28 cm^2/disk), such that solute transport from the upstream compartment into and across the cartilage disks, simultaneously, could occur only from the superficial zone of the cartilage (schematic shown in the inset of FIG. 14). The compartments were treated with casein to prevent non-specific adsorption of solutes to the chamber surfaces. […] Aliquots were taken from each chamber at different time intervals, and fluorescence was measured using a plate reader.
The compartment volume of 25 ml is approximately 1,000× larger than the volume of the cartilage plugs in the configuration of FIG. 14 (inset). […] This configuration thereby focuses on quantitation of steady state solute flux and assessment of effective solute diffusivity within cartilage. […]
[formula] where δ is the thickness of the cartilage disk (˜400 μm). DEFF for Avidin was calculated to be 3.8×10^−7 cm^2/s. […]

Data set [3] is described as follows: Net charge of Avidin estimated from reported electrokinetic zeta potential. The class given is physicochemical. Conditions: Grahame equation from zeta potential, spherical shape diameter ~7 nm. The text has this:
The zeta potential of Avidin molecules in dilute solution of DI water at pH 5 has been reported to be 10 mV (Dougherty et al., Langmuir, 2009). Using Grahame Equation of electrokinetics (Grodzinsky et al., New York: Garland Science, 2011) that related zeta potential to particle surface charge density, and assuming that Avidin attains a spherical shape (diameter ˜7 nm), the zeta potential of 10 mV corresponds to an effective net molecular charge of ˜+7.3.

As for “Avidin: positively charged globular glycosylated tetrameric protein, pI 10.5, 66 kDa, diameter ~7 nm (Invitrogen); SEQ ID NO 1”, the zeta potential in data set [1] is 10 mV. Moreover, in data set [2], the “time lag τlag to achieve the steady state flux” value was approximately 35 min. Moreover, the “effective net molecular charge” value in data set [3] was “~+7.3”.
